Patent US20230312724A1 (KADMON, published 2023)
Read-outs that look alike come from different tables or passages of the source.

What was measured:
[1] = target: T1, hB7-H4 (soluble human B7-H4, construct not named) (human, UniProt Q7Z7D3 25-259, limits assumed); experiment: ELISA, hB7-H4
T1 construct: also called soluble hB7-H4
T1 sequence: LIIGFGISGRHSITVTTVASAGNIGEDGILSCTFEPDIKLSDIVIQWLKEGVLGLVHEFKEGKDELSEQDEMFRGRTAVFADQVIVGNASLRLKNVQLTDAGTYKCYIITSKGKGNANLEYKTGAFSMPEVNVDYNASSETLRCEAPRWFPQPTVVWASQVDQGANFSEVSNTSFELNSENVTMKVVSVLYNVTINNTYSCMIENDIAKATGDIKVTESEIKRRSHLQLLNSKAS
Description: (§1) About 1-2 μg/ml of human or mouse B7-H4-Fc (or his-tagged) was immobilized on ELISA plates (Immuno 2HB, Thermo scientific, cat #3455) at 4° C. overnight. After blocking the plates with 3% PBS+milk, serial diluted antibodies were added to the blocked plates and incubated at RT for 1-1.5 h. After washing the plates with PBS-T (0.05%), horse radish peroxidase (HRP)-conjugated antibody targeting the hFab was added to the plate. Signals were developed by adding 3,3′,5,5′-Tetramethylbenzidine (TMB (followed 1N of H₂SO₄ to stop the reaction. The OD at 450 nm was read by ELISA plate reader (Infinite M1000 from TECAN). GraphPad from Prism was used to plot OD450 vs. antibody concentration curve and to calculate the EC50 values.

[2] = target: T1, hB7-H4 (soluble human B7-H4, construct …); experiment: SPR (Biacore)
Description: (§2) Surface plasmon resonance experiments were performed using a Biacore T200 instrument equipped with CM5 sensor chips. The system was equilibrated in running buffer HBS-EP pH 7.4. The ligands were immobilized using amine-coupling chemistry. The surfaces of flow cells one through four were activated for 5 min using an amine coupling kit at a flow rate of […]. The ligands (human B7-H4-Fc, human B7-H4-hism and mouse B7-H4-Fc; at a concentration of 5 μg/ml in 10 mM sodium acetate, pH 5.0) were immobilized at a density of 50-100 RU on flow cell 2, 3, 4 respectively. Flow cell 1 was left blank to serve as a reference surface. All flow cell surfaces were blocked with a 5 min injection of 1 M ethanolamine, pH 8.0. To collect kinetic binding data, the respective analyte (diluted in 1×HBS-EP buffer, pH 7.4) was injected over the four flow cells at concentrations of 100 nM to 0.1 nM at a flow rate of […] and at a temperature of 25° C. The protein complex was allowed to associate and dissociate for 180 seconds and 1000 or 1200 seconds, respectively. The surfaces were regenerated with a 30 second injection of 1.5 M NaCl/0.05 M NaOH. The data were fit to a simple 1:1 interaction model using the Langmuir fit option available within the Biaevaluaton software

[3] = target: T2, human B7-H4 expressed on cells (human, UniProt Q7Z7D3 25-282); experiment: flow cytometry, SK-BR-3 cells
T2 construct: Transfected CHO cells or tumor cell lines that carry hB7-H4; also called cellular hB7-H4
T2 sequence: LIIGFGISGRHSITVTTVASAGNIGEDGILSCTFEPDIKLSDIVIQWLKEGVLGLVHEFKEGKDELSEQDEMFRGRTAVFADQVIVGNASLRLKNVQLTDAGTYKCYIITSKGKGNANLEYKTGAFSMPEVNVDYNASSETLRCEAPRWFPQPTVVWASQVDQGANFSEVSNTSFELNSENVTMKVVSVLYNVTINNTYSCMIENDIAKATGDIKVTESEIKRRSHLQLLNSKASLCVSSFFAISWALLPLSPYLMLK
Description: (§3) Cells were harvested, washed once, and then re-suspended to the concentration of 1×10⁶ cells/ml in ice cold FACS Buffer. 25 μl of cell suspension was added to each well of a 96-well round-bottom microliter plate. Serially diluted antibodies or fusion proteins were added to each well and incubated for 1 hour at 4° C. Cells were washed three times by centrifugation at 1500 rpm for 5 minutes, and then stained with secondary antibody (1:200 dilution) for 30 min at 4° C. in the dark. Cells were washed once, re-suspended in 100 μl PBS buffer and then analyzed using Guava Flow Cytometry EasyCyte system.

[4] = target: T3, IgV domain of mouse B7-H4-Fc (mouse; human); experiment: ELISA, coated mB7-H4 IgV domain
T3 construct: also called mB7-H4 IgV domain
Description: as §1

[5] = target: T4, mouse B7-H4 expressed on cells (mouse, UniProt Q7TSP5 25-257); experiment: flow cytometry, CHO cells expressing mB7-H4
T4 construct: also called cellular mB7-H4; mB7-H4/CT26
T4 sequence: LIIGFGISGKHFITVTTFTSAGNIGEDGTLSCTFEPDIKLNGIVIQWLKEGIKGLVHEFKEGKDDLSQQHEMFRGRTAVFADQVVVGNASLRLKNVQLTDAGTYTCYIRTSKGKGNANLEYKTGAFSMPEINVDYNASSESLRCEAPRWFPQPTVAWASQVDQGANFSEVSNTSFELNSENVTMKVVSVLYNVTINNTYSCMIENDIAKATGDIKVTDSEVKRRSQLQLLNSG

[6] = target: T5, IgC domain of mouse B7-H4-Fc (mouse; human); experiment: ELISA, coated mB7-H4 IgC domain (title on the sheet: IgC domain of mB7H4)
T5 construct: also called mB7-H4 IgC domain
Description: as §1

[7] = target: T6, IgC domain of human B7-H4-Fc (human); experiment: ELISA, coated hB7-H4 IgC domain (title on the sheet: IgC domain of hB7H4)
T6 construct: also called hB7-H4 IgC domain
Description: as §1

human B7-H4-Fc = target: T7, human B7-H4-Fc (human); experiment: SPR (Biacore)
T7 construct: also called hB7-H4-Fc; hB7-H4 Fc
Description: as §2
(§4) The kinetics for binding of the different antibodies to their targets were examined using Biacore analysis.

human B7-H4-his [8] = target: T8, human B7-H4-his (human, UniProt Q7Z7D3 25-259); experiment: SPR (Biacore)
T8 construct: also called hB7-H4-his; hB7-H4 his; not shown: his tag
T8 sequence: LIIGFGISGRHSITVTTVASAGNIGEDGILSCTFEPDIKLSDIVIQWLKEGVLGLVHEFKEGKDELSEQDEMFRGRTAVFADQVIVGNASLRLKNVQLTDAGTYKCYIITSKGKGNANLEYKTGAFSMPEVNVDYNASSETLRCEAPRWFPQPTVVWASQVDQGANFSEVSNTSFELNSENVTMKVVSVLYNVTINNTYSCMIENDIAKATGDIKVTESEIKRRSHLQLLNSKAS
Description: as §2, §4

[9] = target: T9, mB7-H4 (soluble mouse B7-H4, construct not named) (mouse, UniProt Q7TSP5 25-257, limits assumed); experiment: ELISA and SPR (Biacore)
T9 sequence: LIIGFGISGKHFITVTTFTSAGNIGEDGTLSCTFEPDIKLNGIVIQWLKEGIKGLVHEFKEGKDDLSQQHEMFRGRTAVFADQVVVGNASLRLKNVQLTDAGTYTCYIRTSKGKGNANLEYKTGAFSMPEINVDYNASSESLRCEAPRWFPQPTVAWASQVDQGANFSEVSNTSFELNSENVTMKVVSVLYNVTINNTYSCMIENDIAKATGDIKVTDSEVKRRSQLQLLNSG
Description: as §1, §2

mouse B7-H4-Fc [10] = target: T10, mouse B7-H4-Fc (mouse; human); experiment: ELISA, coated mB7-H4-Fc
T10 construct: also called mB7-H4-Fc; mB7-H4-hFc
Description: (§5) ELISA experiments were performed to determine binding to hB7-H4-Fc (FIG. 3A), hB7-H4-his (FIG. 3B), mB7-H4-Fc (FIG. 3C), and hB7-H4 IgV domain (FIG. 3D). Flow cytometry experiments were performed to determine binding to CHO cells expressing hB7-H4 (FIG. 3E) or mB7-H4 (FIG. 3F).
as §1

mouse B7-H4-his [11] = target: T11, mouse B7-H4-his (mouse, UniProt Q7TSP5 25-257); experiment: ELISA, coated mB7-H4-his
T11 construct: also called mB7-H4-his; mB7-H4-His; not shown: his tag
T11 sequence: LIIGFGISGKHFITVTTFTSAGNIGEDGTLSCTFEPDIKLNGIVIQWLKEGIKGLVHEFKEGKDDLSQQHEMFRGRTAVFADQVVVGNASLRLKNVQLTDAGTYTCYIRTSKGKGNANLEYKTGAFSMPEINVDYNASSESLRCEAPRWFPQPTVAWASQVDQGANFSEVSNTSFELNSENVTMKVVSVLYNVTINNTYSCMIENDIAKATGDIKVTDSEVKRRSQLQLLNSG
Description: as §1

[12] = target: T4, mouse B7-H4 expressed on cells; experiment: flow cytometry, CHO cells expressing mB7-H4; remark: listed apart in the source
Description: as §5, §3

[13] = target: T9, mB7-H4 (soluble mouse B7-H4, construct …); experiment: SPR (Biacore)
Description: as §2

[14] = target: T9, mB7-H4 (soluble mouse B7-H4, construct …); experiment: ELISA, mB7-H4
Description: as §1

[15] = target: T1, hB7-H4 (soluble human B7-H4, construct …); experiment: ELISA, hB7-H4; remark: listed apart in the source
Description: as §1

[16] = target: T1, hB7-H4 (soluble human B7-H4, construct …); experiment: SPR (Biacore); remark: listed apart in the source
[17] = target: T9, mB7-H4 (soluble mouse B7-H4, construct …); experiment: ELISA, mB7-H4; remark: listed apart in the source
Description: as §1

[18] = target: T2, human B7-H4 expressed on cells; experiment: flow cytometry, SK-BR-3 cells; remark: listed apart in the source
mouse B7-H4-Fc [19] = target: T10, mouse B7-H4-Fc; experiment: ELISA, coated mB7-H4-Fc; remark: listed apart in the source
Method in brief: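 Following overnight 4° C coating with about 1-2 μg/ml B7-H4-Fc or his-tagged protein and 3% PBS+milk blocking, antibody dilution series bind 1-1.5 h at RT. HRP anti-hFab plus TMB yields OD450, from which EC50 is derived.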

human B7-H4-his [20] = target: T8, human B7-H4-his; experiment: ELISA, coated hB7-H4-his
Description: as §1

[21] = target: T4, mouse B7-H4 expressed on cells; experiment: flow cytometry, mB7-H4/CT26 cells
Description: as §3

[22] = target: T4, mouse B7-H4 expressed on cells; experiment: flow cytometry, mB7-H4/CT26 cells; remark: listed apart in the source
[23] = target: T12, IgV domain of human B7-H4-Fc (human); experiment: ELISA, coated hB7-H4 IgV domain
T12 construct: also called hB7-H4 IgV domain

[24] = target: T3, IgV domain of mouse B7-H4-Fc; experiment: ELISA, coated mB7-H4 IgV domain; remark: listed apart in the source
[25] = target: T6, IgC domain of human B7-H4-Fc; experiment: ELISA, coated hB7-H4 IgC domain
[26] = target: T9, mB7-H4 (soluble mouse B7-H4, construct …); experiment: SPR (Biacore); values equal to Table 11
mouse B7-H4-his [27] = target: T11, mouse B7-H4-his; experiment: ELISA, coated mB7-H4-his (title on the sheet: Binding to mB7H4-his)
Description: as §1

T3 sequence (chain, as listed by the source): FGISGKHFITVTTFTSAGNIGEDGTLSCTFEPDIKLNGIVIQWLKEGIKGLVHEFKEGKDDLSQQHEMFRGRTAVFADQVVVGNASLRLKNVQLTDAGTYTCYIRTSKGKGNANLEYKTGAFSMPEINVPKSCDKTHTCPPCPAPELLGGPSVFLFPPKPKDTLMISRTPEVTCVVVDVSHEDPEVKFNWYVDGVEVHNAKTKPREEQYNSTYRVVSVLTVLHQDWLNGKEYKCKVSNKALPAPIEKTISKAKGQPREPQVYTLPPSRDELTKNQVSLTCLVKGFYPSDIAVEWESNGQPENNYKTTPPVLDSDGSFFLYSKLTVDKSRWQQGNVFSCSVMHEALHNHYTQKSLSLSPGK
T6 sequence (chain, as listed by the source): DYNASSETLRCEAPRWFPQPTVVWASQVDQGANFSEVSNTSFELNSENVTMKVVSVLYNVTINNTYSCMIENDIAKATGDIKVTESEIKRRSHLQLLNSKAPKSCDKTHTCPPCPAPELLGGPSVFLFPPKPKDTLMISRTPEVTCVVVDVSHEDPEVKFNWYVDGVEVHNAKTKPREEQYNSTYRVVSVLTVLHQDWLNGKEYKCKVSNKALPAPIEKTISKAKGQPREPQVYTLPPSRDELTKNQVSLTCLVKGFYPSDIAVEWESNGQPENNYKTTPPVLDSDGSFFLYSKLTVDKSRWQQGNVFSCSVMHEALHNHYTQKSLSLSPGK
T5 sequence (chain, as listed by the source): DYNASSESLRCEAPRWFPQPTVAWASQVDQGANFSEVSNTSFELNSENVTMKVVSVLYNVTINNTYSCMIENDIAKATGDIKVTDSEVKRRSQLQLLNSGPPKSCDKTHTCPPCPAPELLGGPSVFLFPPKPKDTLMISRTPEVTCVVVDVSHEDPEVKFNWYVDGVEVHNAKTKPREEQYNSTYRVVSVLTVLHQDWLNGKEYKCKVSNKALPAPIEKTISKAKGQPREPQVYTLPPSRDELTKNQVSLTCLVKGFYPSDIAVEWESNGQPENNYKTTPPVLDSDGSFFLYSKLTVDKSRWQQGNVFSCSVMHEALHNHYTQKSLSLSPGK
T10 sequence (chain, as listed by the source): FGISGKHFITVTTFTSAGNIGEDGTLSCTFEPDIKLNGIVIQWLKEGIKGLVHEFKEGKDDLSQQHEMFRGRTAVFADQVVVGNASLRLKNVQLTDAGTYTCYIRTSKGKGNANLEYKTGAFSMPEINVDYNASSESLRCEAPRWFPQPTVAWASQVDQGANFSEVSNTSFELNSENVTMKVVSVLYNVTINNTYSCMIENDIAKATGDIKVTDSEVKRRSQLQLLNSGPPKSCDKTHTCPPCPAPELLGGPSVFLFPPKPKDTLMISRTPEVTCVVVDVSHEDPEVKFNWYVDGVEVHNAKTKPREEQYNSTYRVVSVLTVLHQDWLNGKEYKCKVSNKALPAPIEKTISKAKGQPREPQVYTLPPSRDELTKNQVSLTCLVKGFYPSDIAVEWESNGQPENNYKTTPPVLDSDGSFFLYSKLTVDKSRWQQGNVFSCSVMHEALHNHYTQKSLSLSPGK
T7 sequence (chain, as listed by the source): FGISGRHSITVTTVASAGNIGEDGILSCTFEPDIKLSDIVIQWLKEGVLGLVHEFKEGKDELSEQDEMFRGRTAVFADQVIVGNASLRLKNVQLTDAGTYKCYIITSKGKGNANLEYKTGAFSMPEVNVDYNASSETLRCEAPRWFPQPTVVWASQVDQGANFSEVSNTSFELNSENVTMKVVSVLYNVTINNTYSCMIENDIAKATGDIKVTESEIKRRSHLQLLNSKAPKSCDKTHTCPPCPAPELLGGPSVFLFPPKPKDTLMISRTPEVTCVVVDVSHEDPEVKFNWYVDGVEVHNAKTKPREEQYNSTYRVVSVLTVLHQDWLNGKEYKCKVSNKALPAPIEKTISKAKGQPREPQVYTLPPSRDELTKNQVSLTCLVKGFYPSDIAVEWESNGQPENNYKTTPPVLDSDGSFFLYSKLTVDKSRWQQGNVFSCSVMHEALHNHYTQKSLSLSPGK
T12 sequence (chain, as listed by the source): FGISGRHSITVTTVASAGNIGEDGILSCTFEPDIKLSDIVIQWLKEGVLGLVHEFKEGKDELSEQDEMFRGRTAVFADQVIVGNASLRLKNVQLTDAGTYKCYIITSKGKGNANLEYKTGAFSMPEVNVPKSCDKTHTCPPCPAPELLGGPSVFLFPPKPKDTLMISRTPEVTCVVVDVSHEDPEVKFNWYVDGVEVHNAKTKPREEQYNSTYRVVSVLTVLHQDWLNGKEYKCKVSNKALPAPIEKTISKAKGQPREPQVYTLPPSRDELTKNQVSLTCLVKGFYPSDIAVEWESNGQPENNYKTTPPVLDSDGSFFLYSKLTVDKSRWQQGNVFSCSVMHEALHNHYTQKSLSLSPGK

B1: 3F2/49A2 (antibody, human IgG1, V domains shown)
VH: QVQLVQSGAEVKKPGASVKVSCKASGYTFTAQYMYWVRQAPGQGLEWMGRINPTSGNTVYAQKLQGRVTMTRDTSTSTVYMELSSLRSEDTAVYYCARGINWFDPWGQGTLVTVSS
VL: DIQMTQSPSSLSASVGDRVTITCRASQNIDTYVNWYQQKPGKAPKLLIYAASRLHTVPSRFSGSGSGTDFTLTISSLQPEDFATYYCQQSYTSPFTFGGGTKVEIK
notes: 3F2 VH with 49A2 VL
EC50 [1]: 0.056 nM | Kd [2]: 0.015 nM | EC50 [3]: 0.79 nM | binding result [4]: no binding (tested: axis value -8 (labelled log nM)) | EC50 (read off the curve) [5]: ~8 nM | binding result [6]: no binding (tested: axis value -8 (labelled log nM)) | binding result [7]: no binding (tested: axis value -8 (labelled log nM))

B2: 3F2/3F2 (antibody, human IgG1, V domains shown)
VH: QVQLVQSGAEVKKPGASVKVSCKASGYTFTAQYMYWVRQAPGQGLEWMGRINPTSGNTVYAQKLQGRVTMTRDTSTSTVYMELSSLRSEDTAVYYCARGINWFDPWGQGTLVTVSS
VL: not shown
Kd (human B7-H4-Fc): 0.0951 nM | Kd (human B7-H4-his [8]): 0.0849 nM | EC50 [1]: 0.048 nM | Kd [2]: 0.0819 nM | binding result [9]: no binding | EC50 [3]: 0.84 nM | binding result (mouse B7-H4-Fc [10]): no binding (tested: axis value -8 (log scale labelled nM)) | binding result (mouse B7-H4-his [11]): no binding (tested: axis value -8 (labelled log nM)) | binding result [4]: no binding (tested: axis value -8 (labelled log nM)) | binding result [12]: no binding (tested: axis value -7 (log scale labelled nM)) | binding result [6]: no binding (tested: axis value -8 (labelled log nM))

B3: 9D11/68F5 (antibody, human IgG1, V domains shown)
VH: QVQLVQSGAEVKKPGASVKVSCKASGYTFTSYGISWVRQAPGQGLEWVGVINPNGGTTTYAQTFQGRVTMTRDTSTSTVYMELSSLRSEDTAVYYCARTGYSSGWAFDYWGRGTLVTVSS
VL: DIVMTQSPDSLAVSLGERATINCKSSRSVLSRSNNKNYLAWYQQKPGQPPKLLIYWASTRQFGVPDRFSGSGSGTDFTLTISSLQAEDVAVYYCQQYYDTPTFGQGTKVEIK
notes: 9D11 VH with 68F5 VL
EC50 [1]: 0.778 nM | Kd [2]: 7.15 nM | Kd [13]: 5.96 nM | EC50 [14]: 0.145 nM | EC50 [15]: 0.105 nM | Kd [16]: 2.96 nM | EC50 [17]: 0.144 nM | EC50 [3]: 9.53 nM | EC50 [18]: 3.53 nM | binding result (mouse B7-H4-Fc [19]): binds | EC50 (read off the curve) (human B7-H4-his [20]): ~0.2 nM | EC50 [21]: 31.8 nM | EC50 [22]: 9.41 nM | binding result [23]: no binding (tested: log 1 nM (10 nM)) | binding result [24]: no binding (tested: log 1 nM (10 nM)) | EC50 (read off the curve) [25]: ~0.1 nM | Kd [26]: 2.96 nM | EC50 (read off the curve) (mouse B7-H4-his [27]): ~0.1 nM
